Experiments:
[1] = biological target: T1, Merkel cell polyomavirus (MCPyV) T antigen (Large-T antigen) peptide on HLA-A*02:01 (human); test: killing
T1 peptide: KLLEIAPNC

[2] = biological target: T2, MCPyV T antigen homolog (C9A of …) peptide on HLA-A*02:01 (human); test: cytokine release
T2 peptide: KLLEIAPNA

peptide on HLA-A*02:01 [3] = biological target: T3, peptide on HLA-A*02:01 (human); test: cytokine release
T3 peptide: ALLEIAPNC

peptide on HLA-A*02:01 [4] = biological target: T4, peptide on HLA-A*02:01 (human); test: cytokine release
T4 peptide: KLLEIAANC

peptide on HLA-A*02:01 [5] = biological target: T5, peptide on HLA-A*02:01 (human); test: cytokine release
T5 peptide: KALEIAPNC

[6] = biological target: T6, MCPyV Large-T sequence variant peptide on HLA-A*02:01 (human); test: cytokine release
T6 peptide: KLLEISPNC

[7] = biological target: T7, MCPyV Large-T sequence variant peptide on HLA-A*02:01 (human); test: cytokine release
T7 peptide: KLLEITPNC

[8] = biological target: T1, Merkel cell polyomavirus (MCPyV) T …; test: multimer staining

Measured: binding result

B1: TCR1072 (TCR, V domains shown)
Valpha: RKEVEQDPGPFNVPEGATVAFNCTYSNSASQSFFWYRQDCRKEPKLLMSVYSSGNEDGRFTAQLNRASQYISLLIRDSKLSDSATYLCVVTGTGGFKTIFGAGTRLFVKA
Vbeta: GEEVAQTPKHLVRGEGQKAKLYCAPIKGHSYVFWYQQVLKNEFKFLISFQNENVFDETGMPKERFSAKCLPNSPCSLEIQATKLEDSAVYFCASSSMSIAAGNTGELFFGEGSRLTVL
recognises: [1] | [2] | peptide on HLA-A*02:01 [3]

B2: TCR1007 (TCR, V domains shown)
Valpha: QQQVKQSPQSLIVQKGGISIINCAYENTAFDYFPWYQQFPGKGPALLIAIRPDVSEKKEGRFTISFNKSAKQFSLHIMDSQPGDSATYFCAVPNTGNQFYFGTGTSLTVIP
Vbeta: GAGVSQSPRYKVAKRGQDVALRCDPISGHVSLFWYQQALGQGPEFLTYFQNEAQLDKSGLPSDRFFAERPEGSVSTLKIQRTQQEDSAVYLCASSLIAGLSYEQYFGPGTRLTVT
not listed: [1] | peptide on HLA-A*02:01 [3]
recognises: all other assays above

Source: patent US20210252057A1 (published 2021)
